Experimental data reported in patent publication US20240417436A1 (BRIGHT PEAK THERAPEUTICS, published 2024).
Where two headings read alike, the source gives them in different places. Bridges are numbered along the chain shown (N, C = ends). [ ]: non-standard residue; d: D form. Ygp = O-(8x polyethylene glycol-amino)-tyrosine; Yn3 = O-(9x polyethylene glycol-azido)-tyrosine; hSer = N[C@@H](CCO)C(=O)O; Nle = CCCC[C@H](N)C(=O)O

Columns and labels:
[1] = target: T1, IL-2 receptor βγ complex on pan T cells (human, UniProt P14784 27-551; P31785 23-369); assay: cell-based or functional assay
T1 sequence (looked up) 1: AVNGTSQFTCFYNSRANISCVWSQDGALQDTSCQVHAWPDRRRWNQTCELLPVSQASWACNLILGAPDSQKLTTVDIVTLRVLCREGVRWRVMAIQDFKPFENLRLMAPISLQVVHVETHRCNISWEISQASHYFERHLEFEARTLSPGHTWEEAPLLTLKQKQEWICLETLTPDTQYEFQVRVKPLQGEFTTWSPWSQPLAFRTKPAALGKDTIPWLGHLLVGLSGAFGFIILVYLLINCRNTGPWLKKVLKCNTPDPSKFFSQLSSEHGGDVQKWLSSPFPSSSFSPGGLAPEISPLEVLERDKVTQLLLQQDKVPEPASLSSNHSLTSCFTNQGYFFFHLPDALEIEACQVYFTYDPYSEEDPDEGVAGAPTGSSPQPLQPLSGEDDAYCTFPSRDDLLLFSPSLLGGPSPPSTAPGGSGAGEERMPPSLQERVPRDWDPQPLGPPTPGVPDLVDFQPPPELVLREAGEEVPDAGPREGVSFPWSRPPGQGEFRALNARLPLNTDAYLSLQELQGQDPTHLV
T1 sequence (looked up) 2: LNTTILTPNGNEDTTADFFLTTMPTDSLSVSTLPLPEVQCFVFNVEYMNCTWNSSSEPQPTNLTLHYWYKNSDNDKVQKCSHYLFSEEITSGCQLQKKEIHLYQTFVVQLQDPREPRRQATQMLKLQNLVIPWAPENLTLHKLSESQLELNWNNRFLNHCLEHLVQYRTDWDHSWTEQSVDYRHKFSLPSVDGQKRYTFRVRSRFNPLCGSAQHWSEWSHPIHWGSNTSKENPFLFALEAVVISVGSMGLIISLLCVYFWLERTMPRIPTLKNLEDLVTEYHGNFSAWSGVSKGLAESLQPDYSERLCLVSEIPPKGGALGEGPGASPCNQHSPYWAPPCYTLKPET

[2] = target: T2, recombinant human IL-2 receptor beta containing a His-tag and Avi-Tag (R&D Systems #AVI10459) (human, UniProt P14784 27-239); assay: BLI (Octet), receptor on SAX2 sensor, IL-2 as analyte; construct CMP-151, macrocyclic activatable IL-2 polypeptide
T2 construct: bought protein, held on the Octet SAX2 sensor; also called CD122; IL-2Rβ
T2 sequence (looked up): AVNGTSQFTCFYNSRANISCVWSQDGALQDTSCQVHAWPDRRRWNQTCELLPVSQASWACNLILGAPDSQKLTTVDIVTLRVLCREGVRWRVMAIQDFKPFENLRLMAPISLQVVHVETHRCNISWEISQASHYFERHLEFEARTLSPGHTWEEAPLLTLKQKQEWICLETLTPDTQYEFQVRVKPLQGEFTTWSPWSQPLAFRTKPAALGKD
Method: (§1) Bilayer interferometry (BLI) assays were used to measure the binding constants between activatable IL-2 polypeptides (and activated versions thereof) to IL-2 receptor subunits or receptor complexes. BLI assays were conducted on an Octet® R8 instrument. Assay plates were 96 well, polypropylene, F-bottom (chimney well), black microplates (Greiner Bio-one, Cat. No: 655209). The biosensors were Octet® SAX2 (Sartorius, Cat. No: 18-5136). The assay buffer was 1× Kinetic Buffer (Sartorius, Cat. no: 18-5136) or Phosphate Buffered Saline (PBS) that contained 0.02% (v: v) Tween 20 (Polysorbate 20) and 0.1% (w/v) bovine serum albumin (BSA). The sensor was regenerated between measurements in 10 mM glycine pH 2.7 buffer.
(§2) Sensor attached receptors were either recombinant human IL-2 receptor beta containing a His-tag and Avi-Tag™ (R&D Systems™ #AVI10459) or an Avi-Tag™ Fc with human IL-2R beta and IL-2R gamma attached (Acrobiosystems Cat. no: ACRB-ILG-H82F3-25UG). Receptors were reconstituted from lyophilized powder to 500 μg/ml in PBS. Analytes were diluted in Kinetic buffer to 300 nM, then serially diluted to lower concentrations.

[3] = target: T3, recombinant biotinylated PD1/CD279 protein (Biolegend 789406) (human, UniProt Q15116 25-167, limits assumed, biotinylated); assay: ELISA, test molecule coated, biotinylated PD-1 titrated, streptavidin-HRP
T3 construct: also called human PD1
Method: Plates were then washed four times with 100 μl of PBS-0.2% Tween20 (wash buffer). […] Plates were then washed four times with 100 μl of wash buffer. […] Plates were then washed four times with wash buffer. […] Plates were then washed four times with 100 μl of wash buffer. Fifty microliters of TMB substrate reagent (#CL07, Merck, Buchs, Switzerland) were added to each well and incubated at 37° C. during 5 min. After 5 min at 37° C., Horseradish peroxidase reaction was stopped by adding 50 μl/well of 0.5M H₂SO₄ stop solution. ELISA signal was then measured at 450 nm on an EnSpire plate reader from Perkin Elmer (Schwerzenbach, Switzerland).

[4] = target: T4, mouse CD64 (mouse, UniProt P26151 25-297, limits assumed); assay: ELISA, analogous protocol with mouse CD64
T4 construct: construct not described; also called mouse FcgR I (CD64)
T4 sequence (looked up): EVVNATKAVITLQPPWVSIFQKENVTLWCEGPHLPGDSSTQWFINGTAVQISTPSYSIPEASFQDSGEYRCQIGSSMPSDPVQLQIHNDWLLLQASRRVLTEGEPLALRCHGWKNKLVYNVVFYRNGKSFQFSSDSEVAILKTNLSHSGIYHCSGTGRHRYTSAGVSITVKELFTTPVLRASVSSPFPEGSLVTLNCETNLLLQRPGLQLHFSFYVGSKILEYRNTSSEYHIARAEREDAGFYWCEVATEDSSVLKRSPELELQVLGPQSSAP

[5] = target: T5, recombinant Human Fc gamma RI/CD64 Protein (R&D systems, 1257-FC-050) (human, UniProt P12314 16-288); assay: ELISA, test molecule coated, human CD64 titrated
T5 construct: also called human FcgR I (CD64); FcγRI
Method: FcγRI (CD64) Binding Assays—The interaction of the activatable immunocytokines with human Fc gamma receptors I (FcγRI/CD64) was measured by ELISA. Briefly, Corning high-binding half-area plates (Fisher Scientific, Reinach, Switzerland) were coated overnight at 4° C. with 25 μl of immunocytokines at […] in PBS. Plates were then washed four times with 100 μl of PBS-0.2% Tween20 (wash buffer). Plates surfaces were blocked with 25 μl of PBS1% BSA at 37° C. for 1h. Plates were then washed four times with wash buffer. Then twenty-five microliters of either recombinant Human Fc gamma RI/CD64 Protein (R&D systems, 1257-FC-050, CF) was added in serial dilutions into PBS-T-0.1% BSA and incubated at 37° C. for 2h. Plates were then washed four times with 100 μl of wash buffer. Twenty-five microliters of Streptavidin-Horseradish peroxidase (#RABHRP3, Merck, Buchs, Switzerland) diluted into PBS-T-0.1% BSA were added to each well and incubated at Room Temperature for 1h. Plates were then washed four times with wash buffer. TMB substrate reagent (#CL07, Merck, Buchs, Switzerland) were added to each well and incubated for 5 min. After 5 min, Horseradish peroxidase reaction was stopped by adding 1M H2SO4 stop solution. ELISA signal was then measured at 450 nm on a plate reader.

[6] = target: T6, mouse FcRn (mouse, UniProt Q61559 22-297; P01887 21-119, limits assumed); assay: analogous AlphaLISA protocol with mouse FcRn
T6 construct: construct not described
T6 sequence (looked up): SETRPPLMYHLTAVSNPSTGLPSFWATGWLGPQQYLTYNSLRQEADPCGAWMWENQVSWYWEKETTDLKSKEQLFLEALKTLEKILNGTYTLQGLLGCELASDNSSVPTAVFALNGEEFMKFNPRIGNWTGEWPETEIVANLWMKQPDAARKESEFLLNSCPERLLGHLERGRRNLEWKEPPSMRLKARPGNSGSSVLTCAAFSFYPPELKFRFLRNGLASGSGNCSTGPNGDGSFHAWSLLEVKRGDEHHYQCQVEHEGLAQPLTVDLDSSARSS
T6 sequence (b2m, looked up): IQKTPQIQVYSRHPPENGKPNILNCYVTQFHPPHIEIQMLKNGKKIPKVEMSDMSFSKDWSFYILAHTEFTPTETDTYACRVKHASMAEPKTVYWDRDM
Method: (§3) FcRn Binding Assays—The ability of the activatable immunocytokines to bind to FcRn receptor was performed following manufacturer's instructions using the AlphaLISA FcRn Human Binding kit, Perkin Elmer, Cat #AL3095C. An analogous protocol was performed husing mouse FcRn.

[7] = target: T7, human FcRn (AlphaLISA FcRn Human Binding kit, Perkin Elmer AL3095C) (human, UniProt P55899 24-297; P61769 21-119, limits assumed); assay: AlphaLISA FcRn Human Binding kit (competition)
T7 construct: kit reagent, construct not described
Method: as §3

[8] = target: human PD-1 on Jurkat T cells (PD-1/PD-L1 Blockade Bioassay) (human, UniProt Q15116 25-288); assay: cell-based or functional assay
[9] = target: T2, recombinant human IL-2 receptor beta …; assay: BLI (Octet), receptor on SAX2 sensor, IL-2 as analyte; construct CMP-165, intact (not the MMP2-treated row r16)
Method: as §1, §2

[10] = target: T2, recombinant human IL-2 receptor beta …; assay: BLI (Octet), receptor on SAX2 sensor, IL-2 as analyte; construct CMP-168, intact (not the MMP2-treated row r13)
Method: as §1, §2

[11] = target: T1, IL-2 receptor βγ complex on pan T cells; assay: cell-based or functional assay; remark: listed apart in the source
[12] = target: T8, Avi-Tag Fc with human IL-2R beta and IL-2R gamma attached (Acrobiosystems ACRB-ILG-H82F3-25UG) (human, UniProt P14784 27-239; P31785 23-262); assay: BLI (Octet), receptor on SAX2 sensor, IL-2 as analyte
T8 construct: bought heterodimer; also called CD122 CD132; CD122/CD132 complex
T8 sequence (looked up) 1: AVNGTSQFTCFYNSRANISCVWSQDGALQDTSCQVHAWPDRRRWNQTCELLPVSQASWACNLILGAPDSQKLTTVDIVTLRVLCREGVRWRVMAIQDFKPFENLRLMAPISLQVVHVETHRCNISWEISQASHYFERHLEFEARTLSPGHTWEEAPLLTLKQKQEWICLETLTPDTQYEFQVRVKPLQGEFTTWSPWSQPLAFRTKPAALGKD
T8 sequence (looked up) 2: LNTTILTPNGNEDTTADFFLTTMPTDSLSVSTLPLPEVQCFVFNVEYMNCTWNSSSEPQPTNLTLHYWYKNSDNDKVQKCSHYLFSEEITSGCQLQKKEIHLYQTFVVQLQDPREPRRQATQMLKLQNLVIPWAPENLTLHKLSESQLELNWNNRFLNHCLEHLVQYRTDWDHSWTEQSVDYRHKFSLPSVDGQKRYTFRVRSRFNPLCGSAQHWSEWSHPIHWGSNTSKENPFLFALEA
Method: as §1, §2

[13] = target: T2, recombinant human IL-2 receptor beta …; assay: as above
Method: as §1, §2

B1: CMP-151 (ligand)
chain: APTSSSTKKTQLQLEHLLLDLQKILNGINNYKNPKLTR[Nle]L[hSer][Yn3]KF[Ygp][Nle]PKKATELKHLQCLEEELKPLEEVL[hSer]LAQSKNFHLRPRDLISNINVIVLELKGSETTF[hSer]CEYADETATIVEFLNRWITFSQSIISTLT
modifications: disulfide 58-105; bridge N-23; not fully specified (bridges)
Average EC50, pSTAT5 assay in pan T cells, intact molecule [1]: 28.2 nM | Kd [2]: 65.4 nM

B2: LZM-009 (antibody, human IgG4 S228P, kappa)
heavy: not shown
light: EIVLTQSPATLSLSPGERATISCRASKGVSTSGYSYLHWYQQKPGQAPRLLIYLASYLESGVPARFSGSGSGTDFTLTISSLEPEDFATYYCQHSRELPLTFGTGTKVEIKRTVAAPSVFIFPPSDEQLKSGTASVVCLLNNFYPREAKVQWKVDNALQSGNSQESVTEQDSKDSTYSLSSTLTLSKADYEKHKVYACEVTHQGLSSPVTKSFNRGEC
notes: unconjugated anti-PD-1 IgG4; also called LZM-009 Intact
EC50 [3]: 0.05 nM | EC50 [4]: 554 nM | EC50 [5]: 0.32 nM | EC50 [6]: 0.77 nM | IC50 [7]: 5.79 nM | Mean EC50, PD1/PD-L1 blockade (NFAT-RE luciferase reporter) [8]: 7.34 nM

B3: CMP-165 (ligand)
chain: APTSSSTKKTQLQLEHLLLDLQKILNGINNYKNPKLTR[Nle]L[hSer][Yn3]KF[Ygp][Nle]PKKATELKHLQCLEEELKPLEEVL[hSer]LAQSKNFHLRPRDLISNINVIVLELKGSETTF[hSer]CEYADETATIVEFLNRWITFSQSIISTLT
modifications: disulfide 58-105 (inferred); bridge N-23; not fully specified (bridges)
Kd [9]: 44200 nM

B4: CMP-168 (ligand)
chain: APTSSSTKKTQLQLEHLLLDLQEILNGINNYKNPKLTR[Nle]L[hSer][Yn3]KF[Ygp][Nle]PKKATELKHLQCLEEELKPLEEVL[hSer]LAQSKNFHLRPRDLISNINVIVLELKGSETTF[hSer]CEYADETATIVEFLNRWITFSQSIISTLT
modifications: disulfide 58-105 (inferred); bridge 9-23; not fully specified (residue 23, bridges)
Kd [10]: 25100 nM | Average EC50, pSTAT5 assay in pan T cells, intact molecule [11]: 144 nM | Kd [12]: 136 nM | koff [12]: 0.0022 s⁻¹ | kon [12]: 16200 M⁻¹ s⁻¹ | koff [13]: 0.0721 s⁻¹ | kon [13]: 2880 M⁻¹ s⁻¹
